{"source": "patent US20230212319A1", "about": "“NOVEL ANTIGEN BINDING DOMAINS AND SYNTHETIC ANTIGEN RECEPTORS INCORPORATING THE SAME” (University of Southern California, priority 2020, published 2023)", "assay_type_in_all_cases": "cell-based", "key": {"[1]": {"test_system": "L363 cells", "experiment": "JNG assay, co-culture with L363 cells", "details": "co-culture with L363", "outline": "(§1)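 Jurkat-NFAT-GFP (JNG) cells stably expressing SAR constructs via lentiviral transduction and puromycin/blasticidin selection were cocultured with target cells at E:T ~1:2 for ~4–18 h. NFAT-driven GFP was measured by FACS versus parental JNG cells; scores +/- to 5+ denote ~5–50% GFP-positive cells.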"}, "[2]": {"test_system": "Nalm6 cells", "experiment": "JNG assay, co-culture with Nalm6 cells", "details": "co-culture with Nalm6", "outline": "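Values are semi-quantitative grades of GFP induction, each step approximating 10% more GFP+ cells (5+ ≈50%) above parental reporter cells, measured by FACS after SAR-transduced JNG cells were cultured with targets at ~1:2 E:T for ~4–18 h.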"}, "[3]": {"test_system": "RS;411", "experiment": "JNG assay, co-culture with RS;411 cells", "details": "co-culture with RS411", "outline": "as §1"}, "[4]": {"test_system": "U266 cells", "experiment": "JNG NFAT-GFP induction on co-culture with U266"}, "[5]": {"test_system": "RAJI cells", "experiment": "JNG assay, co-culture with RAJI cells", "details": "JNG cells expressing construct, co-culture with Raji", "outline": "as §1"}, "[6]": {"test_system": "RAJI-CD19-KO cells", "experiment": "JNG assay, co-culture with RAJI-CD19-KO cells", "details": "co-culture with Raji-CD19-KO", "outline": "as §1"}}, "data": [{"molecule": "22221 (protein) MALPVTALLLPLALLLHAARPACEVQLLESGGGLIQPGGSLRLSCAASGFTFSSHAMTWVRQAPGKGLEWVSAISGSGDYTHYADSVKGRFTISRDNSKNTVYLQMNSLRAEDSAVYYCAKDEDGGSLLGHRGQGTLVTVSSGTGPQGIFGQPGYINEFDIQMTQSPSSLSASVGDRVTITCKASDHINNWLAWYQQKPGQAPKLLIYGATTLETGVPSRFSGSGSGTDYTLTISSLQPEDFATYYCQQSWNTPWTFGQGTKLEIKRLEDLKNVFPPEVAVFEPSKAEIAHTQKATLVCLATGFYPDHVELSWWVNGKEVHSGVCTDPQPLKEQPALNDSRYCLSSRLRVSATFWQNPRNHFRCQVQFYGLSENDEWTQDRAKPVTQIVSAEAWGRADCGITSASYHQGVLSATILYEILLGKATLYAVLVSALVLMAMVKRKDSRGRAKRSGSGATNFSLLKQAGDVEENPGPTSATMDWIWRILFLVGAATGAHSGPEVQLVESGGGLVQAGGSLRLSCAASGRTFSMGWFRQAPGKEREFVAAITYSGGSPYYADSVKGRFTISRDNAKNTVYLQMNSLKPEDTAVYYCAANPTYGSDWNAENWGQGTQVTVSSGSGGGGSGGGGSGGGGSFEQVQLQQPGAELVKPGASVKMSCKASGYAFSSYWINWMKQKPGQGLEWIGQIYPGDGDTNYNGKFKGRATLTADTSSSTAYMQLSSLTSEDSAVYFCARSITTVVGCAMDYWGQGTSVTVSSTRIQNPDPAVYQLRDSKSSDKSVCLFTDFDSQTNVSQSKDSDVYITDKCVLDMRSMDFKSNSAVAWSNKSDFACANAFNNSIIPEDTFFPSPESSCDVKLVEKSFETDTNLNFQNLSVIGFRILLLKVAGFNLLMTLRLWSSRAKRSGSGVKQTLNFDLLKLAGDVESNPGPSRGHMTEYKPTVRLATRDDVPRAVRTLAAAFADYPATRHTVDPDRHIERVTELQELFLTRVGLDIGKVWVADDGAAVAVWTTPESVEAGAVFAEIGPRMAELSGSRLAAQQQMEGLLAPHRPKEPAWFLATVGVSPDHQGKGLGSAVVLPGVEAAERAGVPAFLETSAPRNLPFYERLGFTVTADVEVPEGPRTWCMTRKPGA", "values": [{"measurement": "NFAT-GFP ASSAY: L363", "setting": "[1]", "result": "+ (refer to approximately 5%, 10%, 20%, 30%, 40% and 50% GFP positive cells)"}, {"measurement": "NFAT-GFP ASSAY: Nalm6", "setting": "[2]", "result": "+ (refer to approximately 5%, 10%, 20%, 30%, 40% and 50% GFP positive cells)"}, {"measurement": "NFAT-GFP ASSAY: RS411", "setting": "[3]", "result": "+ (refer to approximately 5%, 10%, 20%, 30%, 40% and 50% GFP positive cells)"}, {"measurement": "NFAT-GFP ASSAY: U266", "setting": "[4]", "result": "2+ (refer to approximately 5%, 10%, 20%, 30%, 40% and 50% GFP positive cells)"}]}, {"molecule": "22249 (protein) MALPVTALLLPLALLLHAARPDIQMTQSPSSLSASVGDRVTITCKASDHINNWLAWYQQKPGQAPKLLIYGATTLETGVPSRFSGSGSGTDYTLTISSLQPEDFATYYCQQSWNTPWTFGQGTKLEIKRLEDLKNVFPPEVAVFEPSEAEISHTQKATLVCLATGFYPDHVELSWWVNGKEVHSGVCTDPQPLKEQPALNDSRYCLSSRLRVSATFWQNPRNHFRCQVQFYGLSENDEWTQDRAKPVTQIVSAEAWGRADCGFTSESYQQGVLSATILYEILLGKATLYAVLVSALVLMAMVKRKDSRGRAKRSGSGATNFSLLKQAGDVEENPGPTSATMDWIWRILFLVGAATGAHSGPEVQLVESGGGLVQAGGSLRLSCAASGRTFTMGWFRQAPGKEREFVAAISLSPTLAYYADSVKGRFTISRDNAKNTVVLQMNSLKPEDTALYYCAADRKSVMSIRPDYWGQGTQVTVSSGSALRRLLGLFGFEQVQLQQPGAELVKPGASVKMSCKASGYAFSSYWINWMKQKPGQGLEWIGQIYPGDGDTNYNGKFKGRATLTADTSSSTAYMQLSSLTSEDSAVYFCARSITTVVGCAMDYWGQGTSVTVSSTRIQNPDPAVYQLRDSKSSDKSVCLFTDFDSQTNVSQSKDSDVYITDKCVLDMRSMDFKSNSAVAWSNKSDFACANAFNNSIIPEDTFFPSPESSCDVKLVEKSFETDTNLNFQNLSVIGFRILLLKVAGFNLLMTLRLWSSRAKRSGSGVKQTLNFDLLKLAGDVESNPGPSRGHMTEYKPTVRLATRDDVPRAVRTLAAAFADYPATRHTVDPDRHIERVTELQELFLTRVGLDIGKVWVADDGAAVAVWTTPESVEAGAVFAEIGPRMAELSGSRLAAQQQMEGLLAPHRPKEPAWFLATVGVSPDHQGKGLGSAVVLPGVEAAERAGVPAFLETSAPRNLPFYERLGFTVTADVEVPEGPRTWCMTRKPGA", "values": [{"measurement": "NFAT-GFP ASSAY: Raji", "setting": "[5]", "result": "+ (refer to approximately 5%, 10%, 20%, 30%, 40% and 50% GFP positive cells)"}, {"measurement": "NFAT-GFP ASSAY: Raji-CD19-KO", "setting": "[6]", "result": "2+ (refer to approximately 5%, 10%, 20%, 30%, 40% and 50% GFP positive cells)"}, {"measurement": "NFAT-GFP ASSAY: L363", "setting": "[1]", "result": "2+ (refer to approximately 5%, 10%, 20%, 30%, 40% and 50% GFP positive cells)"}, {"measurement": "NFAT-GFP ASSAY: RS411", "setting": "[3]", "result": "+ (refer to approximately 5%, 10%, 20%, 30%, 40% and 50% GFP positive cells)"}, {"measurement": "NFAT-GFP ASSAY: U266", "setting": "[4]", "result": "4+ (refer to approximately 5%, 10%, 20%, 30%, 40% and 50% GFP positive cells)"}]}, {"molecule": "22135 (protein) MALPVTALLLPLALLLHAARPACEVQLLESGGGLIQPGGSLRLSCAASGFTFSSHAMTWVRQAPGKGLEWVSAISGSGDYTHYADSVKGRFTISRDNSKNTVYLQMNSLRAEDSAVYYCAKDEDGGSLLGHRGQGTLVTVSSGTGGGGSGGGGSGGGGSEFDIQMTQSPSSLSASVGDRVTITCKASDHINNWLAWYQQKPGQAPKLLIYGATTLETGVPSRFSGSGSGTDYTLTISSLQPEDFATYYCQQSWNTPWTFGQGTKLEIKRLEDLKNVFPPEVAVFEPSEAEISHTQKATLVCLATGFYPDHVELSWWVNGKEVHSGVCTDPQPLKEQPALNDSRYCLSSRLRVSATFWQNPRNHFRCQVQFYGLSENDEWTQDRAKPVTQIVSAEAWGRADCGFTSESYQQGVLSATILYEILLGKATLYAVLVSALVLMAMVKRKDSRGRAKRSGSGATNFSLLKQAGDVEENPGPTSATMDWIWRILFLVGAATGAHSGPEVQLVESGGGLVQAGGSLRLSCAASGRTFSMGWFRQAPGKEREFVAAITYSGGSPYYADSVKGRFTISRDNAKNTVYLQMNSLKPEDTAVYYCAANPTYGSDWNAENWGQGTQVTVSSGSGGGGSGGGGSGGGGSFEQVQLQQPGAELVKPGASVKMSCKASGYAFSSYWINWMKQKPGQGLEWIGQIYPGDGDTNYNGKFKGRATLTADTSSSTAYMQLSSLTSEDSAVYFCARSITTVVGCAMDYWGQGTSVTVSSTRIQNPDPAVYQLRDSKSSDKSVCLFTDFDSQTNVSQSKDSDVYITDKCVLDMRSMDFKSNSAVAWSNKSDFACANAFNNSIIPEDTFFPSPESSCDVKLVEKSFETDTNLNFQNLSVIGFRILLLKVAGFNLLMTLRLWSSRAKRSGSGVKQTLNFDLLKLAGDVESNPGPSRGHMTEYKPTVRLATRDDVPRAVRTLAAAFADYPATRHTVDPDRHIERVTELQELFLTRVGLDIGKVWVADDGAAVAVWTTPESVEAGAVFAEIGPRMAELSGSRLAAQQQMEGLLAPHRPKEPAWFLATVGVSPDHQGKGLGSAVVLPGVEAAERAGVPAFLETSAPRNLPFYERLGFTVTADVEVPEGPRTWCMTRKPGA", "values": [{"measurement": "NFAT-GFP ASSAY: L363", "setting": "[1]", "result": "2+ (refer to approximately 5%, 10%, 20%, 30%, 40% and 50% GFP positive cells)"}, {"measurement": "NFAT-GFP ASSAY: RS411", "setting": "[3]", "result": "2+ (refer to approximately 5%, 10%, 20%, 30%, 40% and 50% GFP positive cells)"}, {"measurement": "NFAT-GFP ASSAY: U266", "setting": "[4]", "result": "3+ (refer to approximately 5%, 10%, 20%, 30%, 40% and 50% GFP positive cells)"}]}, {"molecule": "22145 (protein) MALPVTALLLPLALLLHAARPACEVQLLESGGGLIQPGGSLRLSCAASGFTFSSHAMTWVRQAPGKGLEWVSAISGSGDYTHYADSVKGRFTISRDNSKNTVYLQMNSLRAEDSAVYYCAKDEDGGSLLGHRGQGTLVTVSSGTGGGGSGGGGSGGGGSEFDIQMTQSPSSLSASVGDRVTITCRASQDISNYLNWYQQKPGKAVKLLIYYTSILHSGVPSRFSGSGSGTDYTLTISSLQPEDFATYFCQQGNTLPWTFGGGTKVEIKLEGQPKANPTVTLFPPSSEELQANKATLVCLISDFYPGAVTVAWKADGSPVKAGVETTKPSKQSNNKYAASSYLSLTPEQWKSHRSYSCQVTHEGSTVEKTVAPTECSPIKTDVITMDPKDNCSKDANDTLLLQLTNTSAYYMYLLLLLKSVVYFAIITCCLLRRTAFCCNGEKSRAKRSGSGATNFSLLKQAGDVEENPGPTSATMDWIWRILFLVGAATGAHSGPQVQLQESGGGLAQAGGSLRLSCAASGRTFSMGWFRQAPGKEREFVAAITYSGGSPYYASSVRGRFTISRDNAKNTVYLQMNSLKPEDTAVYYCAANPTYGSDWNAENWGQGTQVTVSSGSGGGGSGGGGSGGGGSFEVQLVESGGGLVKPGGSLKLSCAASGFAFSIYDMSWVRQAPGKGLEWVAYISSGGGTTYYPDTVKGRFTISRDNAKNTLYLQMSSLRAEDTAMYYCARHSGYGSSYGVLFAYWGQGTLVTVSSTRASTKGPSVFPLAPSSKSTSGGTAALGCLVKDYFPEPVTVSWNSGALTSGVHTFPAVLQSSGLYSLSSVVTVPSSSLGTQTYICNVNHKPSNTKVDKRVEPKSCEVKTDSTDHVKPKETENTKQPSKSCHKPKAIVHTEKVNMMSLTVLGLRMLFAKTVAVNFLLTAKLFFLRAKRSGSGVKQTLNFDLLKLAGDVESNPGPSRGHMTEYKPTVRLATRDDVPRAVRTLAAAFADYPATRHTVDPDRHIERVTELQELFLTRVGLDIGKVWVADDGAAVAVWTTPESVEAGAVFAEIGPRMAELSGSRLAAQQQMEGLLAPHRPKEPAWFLATVGVSPDHQGKGLGSAVVLPGVEAAERAGVPAFLETSAPRNLPFYERLGFTVTADVEVPEGPRTWCMTRKPGA", "values": [{"measurement": "NFAT-GFP ASSAY: Raji", "setting": "[5]", "result": "+/- (refer to approximately 5%, 10%, 20%, 30%, 40% and 50% GFP positive cells)"}, {"measurement": "NFAT-GFP ASSAY: Nalm6", "setting": "[2]", "result": "+ (refer to approximately 5%, 10%, 20%, 30%, 40% and 50% GFP positive cells)"}, {"measurement": "NFAT-GFP ASSAY: RS411", "setting": "[3]", "result": "+ (refer to approximately 5%, 10%, 20%, 30%, 40% and 50% GFP positive cells)"}, {"measurement": "NFAT-GFP ASSAY: U266", "setting": "[4]", "result": "2+ (refer to approximately 5%, 10%, 20%, 30%, 40% and 50% GFP positive cells)"}]}]}
